Like-named read-outs stand apart in the source and are kept apart here.
Tests used:
[1] = biological target: Recombinant MDM2 (baculovirus-expressed, pBlueBacHis2:MDM2) (human) (UniProt Q00987); assay: cell-based or functional assay
[2] = biological target: Recombinant MDM2 (baculovirus-expressed, pBlueBacHis2:MDM2) (human) (UniProt Q00987); assay: cell-based or functional assay; remark: listed apart in the source

Recombinant MDM2 (baculovirus-expressed, pBlueBacHis2:MDM2) (human), sequence (Q00987 whole entry): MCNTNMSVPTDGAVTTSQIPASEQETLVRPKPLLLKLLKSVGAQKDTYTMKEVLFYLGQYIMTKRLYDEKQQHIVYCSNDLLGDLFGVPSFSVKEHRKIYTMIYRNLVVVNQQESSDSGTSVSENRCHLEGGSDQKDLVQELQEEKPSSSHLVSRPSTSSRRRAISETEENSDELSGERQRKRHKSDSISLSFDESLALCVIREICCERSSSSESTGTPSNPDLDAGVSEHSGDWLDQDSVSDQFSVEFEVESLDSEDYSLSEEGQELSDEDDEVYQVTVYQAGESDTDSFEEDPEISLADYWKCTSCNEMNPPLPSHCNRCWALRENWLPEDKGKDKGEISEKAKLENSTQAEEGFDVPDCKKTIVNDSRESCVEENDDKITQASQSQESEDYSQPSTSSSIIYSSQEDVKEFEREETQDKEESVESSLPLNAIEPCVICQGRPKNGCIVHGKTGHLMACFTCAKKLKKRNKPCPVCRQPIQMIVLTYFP

“Recombinant hMTBP (bacterially expressed from pQE-hMTBP) (from UniProt Q96DY7 1-904)” gave an MDM2 auto-ubiquitination in vitro (molar ratio MTBP:MDM2) [1] of 10 and an MDM2 auto-ubiquitination in vitro (molar ratio MTBP:MDM2) [2] of 3.

From patent US20080085279A1
